Test results taken from paper doi:10.1101/2025.03.24.644971.
Numbering of substitutions follows the chain as printed.

T1: Scer_Rsc1 221-596 WT (Saccharomyces cerevisiae, UniProt P53236 221-596)
T1 sequence: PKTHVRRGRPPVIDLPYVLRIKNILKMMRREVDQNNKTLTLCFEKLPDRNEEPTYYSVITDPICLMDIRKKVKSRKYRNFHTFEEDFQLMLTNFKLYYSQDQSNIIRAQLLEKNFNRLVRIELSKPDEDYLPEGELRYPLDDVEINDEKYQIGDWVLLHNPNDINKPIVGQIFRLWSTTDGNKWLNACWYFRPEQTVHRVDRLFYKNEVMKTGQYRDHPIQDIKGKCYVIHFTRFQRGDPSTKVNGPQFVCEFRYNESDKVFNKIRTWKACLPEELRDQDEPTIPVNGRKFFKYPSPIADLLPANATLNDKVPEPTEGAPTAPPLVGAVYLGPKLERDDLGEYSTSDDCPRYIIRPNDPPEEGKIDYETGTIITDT

T2: Scer_Rsc1 221-596 basic-surface mutant (Saccharomyces cerevisiae, UniProt P53236 221-596, K246E;R249E;R250E)
T2 sequence: T1 sequence with K26E, R29E, R30E

B1: A-rich (polyA) probe (dsDNA)
DNA 1: GCATCAGTCTTATAGGAAGAAAAACAAAAAGTCCATCGATCTAG
DNA 2: CTAGATCGATGGACTTTTTGTTTTTCTTCCTATAAGACTGATGC

Experiments:
Test in all cases: EMSA
[1] = system: Calb_Rsc1 213-599 WT (AT-hook-BD2-BAH) (Candida albicans); settings: 50 mM Tris-HCl pH 7.5, 100 mM NaCl, 2.5% glycerol, 0.1 mM EDTA, 1 mM DTT
[2] = system: Calb_Rsc1 213-599 BAH mutant (Candida albicans); settings: 50 mM Tris-HCl pH 7.5, 100 mM NaCl, 2.5% glycerol, 0.1 mM EDTA, 1 mM DTT
Scer_Rsc1 221-596 WT = target: T1, Scer_Rsc1 221-596 WT
[3] = target: T2, Scer_Rsc1 221-596 basic-surface mutant
Scer_Rsc2 261-636 WT = Scer_Rsc2 261-636 WT (Saccharomyces cerevisiae, UniProt Q06488 261-636)
Sequence of Scer_Rsc2 261-636 WT (Q06488 261-636): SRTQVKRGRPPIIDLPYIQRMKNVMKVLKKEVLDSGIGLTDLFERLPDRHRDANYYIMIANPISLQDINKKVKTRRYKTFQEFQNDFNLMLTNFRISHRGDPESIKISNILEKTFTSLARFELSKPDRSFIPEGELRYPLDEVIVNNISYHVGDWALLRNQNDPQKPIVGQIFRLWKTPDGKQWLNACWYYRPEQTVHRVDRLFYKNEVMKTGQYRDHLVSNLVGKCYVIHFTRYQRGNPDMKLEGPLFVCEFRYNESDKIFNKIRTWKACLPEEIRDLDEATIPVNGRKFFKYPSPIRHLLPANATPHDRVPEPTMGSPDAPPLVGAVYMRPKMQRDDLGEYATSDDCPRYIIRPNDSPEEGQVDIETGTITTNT

[4] = target: Scer_Rsc2 261-636 basic-surface mutant (Saccharomyces cerevisiae, UniProt Q06488 261-636, K286E;K289E;K290E)
Sequence of Scer_Rsc2 261-636 basic-surface mutant (Q06488 261-636 K286E/K289E/K290E): as the sequence (Q06488 261-636) above, with K26E, K29E, K30E counted along it

Row | Molecule | Kd [1] [µM] | Kd [2] [µM] | Kd (Scer_Rsc1 221-596 WT) [µM] | binding result [3] | Kd (Scer_Rsc2 261-636 WT) [µM] | binding result [4]
1 | ATCAGGTCGCTGTTCAATACATGCACAGGATGTATATATCTGACACGTGCCTGGAGACTAGGGAGTAATCCCCTTGGCGGTTAAAACGCGGGGGACAGCGCGTACGTGCGTTTAAGCGGTGCTAGAGCTGTCTACGACCAATTGAGCGGCCTCGGCACCGGGATTCTCCAGGGCGGCCGCGTATAGGGTCCATCGAT (double strand) [197bp 601 DNA] | 1.9 | 11.3 | – | – | – | –
2 | ATCGATGTATATATCTGACACGTGCCTGGAGACTAGGGAGTAATCCCCTTGGCGGTTAAAACGCGGGGGACAGCGCGTACGTGCGTTTAAGCGGTGCTAGAGCTGTCTACGACCAATTGAGCGGCCTCGGCACCGGGATTCTGAT (double strand) [145bp 601 DNA] | 1.9 | > 15 | – | – | – | –
3 | GCATCAGTCTTATAGGAAGAAAAACAAAAAGTCCATCGATCTAG (double strand) [A-rich (polyA) probe] | 7.4 | – | – | – | – | –
4 | B1 | – | – | 3.7 | no binding | 2.9 | no binding
